Tests used:
[1] = molecular target: the molecule itself; assay: ATR-FTIR; assembled Hfq CTR at 20 mg/mL in D2O, the amyloid state at the start of the lipid experiment
[2] = molecular target: the molecule itself; assay: X-ray fibre diffraction; Hfq11 filaments assembled in water, seen as bundles of approx. 20 nm fibers by TEM; powder diffraction at 270 K, Cu Kα, washed by centrifugation; reflections at 4.6 Å and 7.8–8 Å (cross-β)

B1: Hfq 38-residue C-terminal region peptide (peptide)
peptide: SRPVSHHSNNAGGGTSSNYHHGSSAQNTSAQQDSEETE
notes: Hfq (host factor 1), E. coli, C-terminal region; The lipid experiment names its sample only 'assembled Hfq CTR'; also called Hfq 38-residues; Hfq CTR; source: synthetic peptide (Proteogenix), assembled at 4 °C at 20 mg/mL for >1 month (D2O for FTIR)
binding result [1]: binds

B2: Hfq11, minimal 11-residue C-terminal assembling motif of E. coli Hfq (Hfq_(87-97)) (peptide)
peptide: SAQNTSAQQDS
notes: Hfq (host factor 1), E. coli, C-terminal region; Unlabelled synthetic peptide, studied as assembled filaments; also called Hfq 11-residues; 11-residue C-terminal Hfq peptide; source: synthetic peptide (Proteogenix), assembled in water at 4 °C at 20 mg/mL for >1 month
binding result [2]: binds

From article PMC10590398, “Hfq C-terminal region forms a β-rich amyloid-like motif without perturbing the N-terminal Sm-like structure” (Communications Biology, 2023)
